In patent US20150201588A1:

How the values were obtained:
human CD20 (human) [1] = molecular target: human CD20 (human) (UniProt P11836); test: QIFIKIT-based quantitative flow cytometry on Cyno iPS-EPI-1509-1_Gluc/CD20 (exogenous CD20)
human CD20 (human) [2] = molecular target: human CD20 (human) (UniProt P11836); test: QIFIKIT-based quantitative flow cytometry on Daudi cells (human Burkitt's lymphoma line, endogenous CD20)
human CD20 (human) [3] = molecular target: human CD20 (human) (UniProt P11836); test: QIFIKIT-based quantitative flow cytometry on Cyno iPS-EPI-1504-3_Gluc/CD20 (exogenous CD20)
human CD20 (human) [4] = molecular target: human CD20 (human) (UniProt P11836); test: QIFIKIT-based quantitative flow cytometry on Cyno iPS-EPI-1504-1_Gluc/CD20 (exogenous CD20)

UniProt P11836, sequence (P11836 whole entry): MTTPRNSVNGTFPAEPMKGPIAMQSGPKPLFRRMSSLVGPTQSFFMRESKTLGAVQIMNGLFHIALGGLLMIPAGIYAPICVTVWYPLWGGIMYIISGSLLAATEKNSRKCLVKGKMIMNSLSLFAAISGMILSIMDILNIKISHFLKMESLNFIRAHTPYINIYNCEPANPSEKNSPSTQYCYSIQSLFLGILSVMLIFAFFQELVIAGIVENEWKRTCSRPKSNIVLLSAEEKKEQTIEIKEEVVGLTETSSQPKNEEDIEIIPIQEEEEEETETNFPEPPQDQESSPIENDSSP

CD20 Surface Expression (Copies/Cell) (human CD20 (human) [1]): 1.48e+06 Copies/Cell
CD20 Surface Expression (Copies/Cell) (human CD20 (human) [2]): 388000 Copies/Cell
CD20 Surface Expression (Copies/Cell) (human CD20 (human) [3]): 1.22e+06 Copies/Cell
CD20 Surface Expression (Copies/Cell) (human CD20 (human) [4]): 1.38e+06 Copies/Cell
Substance: anti-CD20-FITC (clone 2H7) (antibody)
